Test results published in the Immune Epitope Database (IEDB).

Experiments:
[1] = target: HLA-A*02:01; experiment: IEDB peptide-MHC binding, purified MHC/direct/fluorescence; filed as Kd, often an IC50 or EC50 that approximates it; ≥ and ≤ were set here for values at or beyond the usual limits of such assays
[2] = target: HLA-B*40:01; experiment: as above; details: source organism: Alkhumra hemorrhagic fever virus
[3] = target: HLA-B*35:01; experiment: as above; details: source organism: Tick-borne encephalitis virus
[4] = target: HLA-B*44:02; experiment: as above; details: source organism: Alkhumra hemorrhagic fever virus
[5] = target: HLA-A*26:01; experiment: as above; details: source organism: Alkhumra hemorrhagic fever virus
[6] = target: HLA-A*01:01; experiment: as above; details: source organism: Alkhumra hemorrhagic fever virus
[7] = target: HLA-B*58:01; experiment: as above; details: source organism: Alkhumra hemorrhagic fever virus
[8] = target: HLA-A*03:01; experiment: as above; details: source organism: Alkhumra hemorrhagic fever virus
[9] = target: HLA-B*08:01; experiment: as above; details: source organism: Tick-borne encephalitis virus
[10] = target: HLA-B*27:05; experiment: as above; details: source organism: Alkhumra hemorrhagic fever virus
[11] = target: HLA-B*15:01; experiment: as above; details: source organism: Alkhumra hemorrhagic fever virus
[12] = target: HLA-B*07:02; experiment: as above; details: source organism: Tick-borne encephalitis virus
[13] = target: HLA-A*31:01; experiment: as above; details: source organism: Alkhumra hemorrhagic fever virus
[14] = target: HLA-A*24:03; experiment: as above; details: source organism: Tick-borne encephalitis virus
[15] = target: HLA-A*69:01; experiment: as above; details: source organism: Camelpox virus M-96
[16] = target: HLA-C*06:02; experiment: as above
[17] = target: HLA-A*01:01; experiment: IEDB peptide-MHC binding, purified MHC/competitive/fluorescence; filed as Kd, often an IC50 or EC50 that approximates it; ≥ and ≤ were set here for values at or beyond the usual limits of such assays; details: source organism: Homo sapiens
[18] = target: HLA-A*29:02; experiment: as above
[19] = target: HLA-A*02:01; experiment: as above
[20] = target: HLA-B*39:01; experiment: as above; details: source organism: Canarypox virus
[21] = target: HLA-B*18:01; experiment: as above; details: source organism: Canarypox virus
[22] = target: HLA-A*26:01; experiment: as above; details: source organism: Canarypox virus
[23] = target: HLA-A*03:01; experiment: as above; details: source organism: Canarypox virus
[24] = target: HLA-B*51:01; experiment: as above; details: source organism: Canarypox virus
[25] = target: HLA-B*57:01; experiment: as above; details: source organism: Canarypox virus
[26] = target: HLA-B*27:03; experiment: as above; details: source organism: Canarypox virus
[27] = target: HLA-B*46:01; experiment: as above; details: source organism: Canarypox virus
[28] = target: HLA-A*02:19; experiment: as above; details: source organism: Canarypox virus
[29] = target: HLA-B*15:17; experiment: as above; details: source organism: Canarypox virus
[30] = source organism: Vaccinia virus Copenhagen
[31] = source organism: Canarypox virus

Sequence: WPWNAREDV
- Kd ([1]; source organism: Alkhumra hemorrhagic fever virus): ≥ 20000 nM
- Kd [2]: ≥ 20 µM
- Kd [3]: 103 nM
- Kd [4]: ≥ 20 µM
- Kd [5]: ≥ 20 µM
- Kd [6]: ≥ 20 µM
- Kd [7]: ≥ 20 µM
- Kd [8]: ≥ 20 µM
- Kd [9]: 7.65 µM
- Kd [10]: ≥ 20 µM
- Kd [11]: ≥ 20 µM
- Kd [12]: 466 nM
- Kd [13]: ≥ 20 µM
- Kd [14]: 5.29 µM

Sequence: WYYDFHFFV
- Kd ([1]; source organism: Camelpox virus M-96): 391 nM
- Kd [15]: 270 nM
- Kd ([16]; source organism: Vaccinia virus WR): ≥ 20000 nM

Sequence: YFEYIEENKY
- Kd [17]: 1560 nM
- Kd ([18]; source organism: Homo sapiens): ≤ 0.0001 µM

Sequence: YLHPKDKYL
- Kd [19, 30]: 12.5 nM
- Kd [16, 30]: 2080 nM

Sequence: YLNDFAQLL
- Kd ([16]; source organism: Mycobacterium tuberculosis str. Haarlem): 25 nM

Sequence: YMMDGNECP
- Kd [19, 31]: 247 nM
- Kd [20]: ≥ 20 µM
- Kd [21]: ≥ 20 µM
- Kd [22]: ≥ 20 µM
- Kd [23]: ≥ 20 µM
- Kd [24]: ≥ 20 µM
- Kd [25]: ≥ 20 µM
- Kd [26]: ≥ 20 µM
- Kd [27]: ≥ 20 µM
- Kd [18, 31]: ≥ 20 µM
- Kd [28]: 200 nM
- Kd [29]: ≥ 20 µM
